Experiments:
Test in all cases: pull-down; Glutathione-Sepharose beads coated with GST alone or GST-GTPase fusions pre-loaded with GDP (DN) or GTPγS (CA), incubated with lysates of HEK293T cells expressing GFP-CRN7 WT or CRIB mutants; blot with GFP mAb K3-184-2 or anti-N-WASP; ImageJ quantification, input set at 100%
Details in all cases: one partner purified
[1] = molecular target: GST-Rac1 constitutively active (CA/Q61L), preloaded with GTPγS (UniProt P63000 1-192, Q61L)
[2] = molecular target: T1, GST-Cdc42 dominant negative (DN/T17N), preloaded with GDP (UniProt P60953 1-191, T17N)
T1 construct: Preloaded with GDP; also called Cdc42DN; Cdc42 DN; source: E. coli BL21, purified (Glutathione Sepharose), held on glutathione-Sepharose beads

[3] = molecular target: GST-Rac1 dominant negative (DN/T17N), preloaded with GDP (UniProt P63000 1-192, T17N)

T1 sequence (P60953 whole entry T17N): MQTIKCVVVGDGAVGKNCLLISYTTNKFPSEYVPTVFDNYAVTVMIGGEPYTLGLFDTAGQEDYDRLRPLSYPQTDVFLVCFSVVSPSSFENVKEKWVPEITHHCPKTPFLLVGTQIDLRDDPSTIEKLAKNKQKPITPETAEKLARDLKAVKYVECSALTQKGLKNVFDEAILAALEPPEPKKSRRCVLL

percent of input bound [1]: 7 % of input
percent of input bound [2]: 65 % of input
percent of input bound [3]: ~17 % of input
B1: GFP-CRN7 WT (human Coronin7, full length, GFP on its N-terminus) (natural protein, UniProt P57737 1-925, looked up)
chain: MNRFRVSKFRHTEARPPRRESWISDIRAGTAPSCRNHIKSSCSLIAFNSDRPGVLGIVPLQGQGEDKRRVAHLGCHSDLVTDLDFSPFDDFLLATGSADRTVKLWRLPGPGQALPSAPGVVLGPEDLPVEVLQFHPTSDGILVSAAGTTVKVWDAAKQQPLTELAAHGDLVQSAVWSRDGALVGTACKDKQLRIFDPRTKPRASQSTQAHENSRDSRLAWMGTWEHLVSTGFNQMREREVKLWDTRFFSSALASLTLDTSLGCLVPLLDPDSGLLVLAGKGERQLYCYEVVPQQPALSPVTQCVLESVLRGAALVPRQALAVMSCEVLRVLQLSDTAIVPIGYHVPRKAVEFHEDLFPDTAGCVPATDPHSWWAGDNQQVQKVSLNPACRPHPSFTSCLVPPAEPLPDTAQPAVMETPVGDADASEGFSSPPSSLTSPSTPSSLGPSLSSTSGIGTSPSLRSLQSLLGPSSKFRHAQGTVLHRDSHITNLKGLNLTTPGESDGFCANKLRVAVPLLSSGGQVAVLELRKPGRLPDTALPTLQNGAAVTDLAWDPFDPHRLAVAGEDARIRLWRVPAEGLEEVLTTPETVLTGHTEKICSLRFHPLAANVLASSSYDLTVRIWDLQAGADRLKLQGHQDQIFSLAWSPDGQQLATVCKDGRVRVYRPRSGPEPLQEGPGPKGGRGARIVWVCDGRCLLVSGFDSQSERQLLLYEAEALAGGPLAVLGLDVAPSTLLPSYDPDTGLVLLTGKGDTRVFLYELLPESPFFLECNSFTSPDPHKGLVLLPKTECDVREVELMRCLRLRQSSLEPVAFRLPRVRKEFFQDDVFPDTAVIWEPVLSAEAWLQGANGQPWLLSLQPPDMSPVSQAPREAPARRAPSSAQYLEEKSDQQKKEELLNAMVAKLGNREDPLPQDSFEGVDEDEWD
notes: Coronin7 (CRN7), human, wild type, full length; CRIB motifs at 116-130 (NT-CRIB) and 582-599 (CT-CRIB); also called full-length CRN7; source: HEK293T, transfected (PEI), in lysate; not shown: GFP, N-terminal, kept
